B1: IpaH7.8 protein (residues 23–565) [Shigella flexneri] / GSDMB (residues 1-411) [human] (parent complex)
chain 1: SNEHYLRILTEWEKNSSPGEERGIAFNRLSQCFQNQEAVLNLSDLNLTSLPELPKHISALIVENNKLTSLPKLPAFLKELNADNNRLSVIPELPESLTTLSVRSNQLENLPVLPNHLTSLFVENNRLYNLPALPEKLKFLHVYYNRLTTLPDLPDKLEILCAQRNNLVTFPQFSDRNNIRQKEYYFHFNQITTLPESFSQLDSSYRINISGNPLSTRVLQSLQRLTSSPDYHGPQIYFSMSDGQQNTLHRPLADAVTAWFPENKQSDVSQIWHAFEHEEHANTFSAFLDRLSDTVSARNTSGFREQVAAWLEKLSASAELRQQSFAVAADATESCEDRVALTWNNLRKTLLVHQASEGLFDNDTGALLSLGREMFRLEILEDIARDKVRTLHFVDEIEVYLAFQTMLAEKLQLSTAVKEMRFYGVSGVTANDLRTAEAMVRSREENEFTDWFSLWGPWHAVLKRTEADRWAQAEEQKYEMLENEYSQRVADRLKASGLSGDADAEREAGAQVMRETEQQIYRQLTDEVLALRLSENGSRLHHS
chain 2: MFSVFEEITRIVVKEMDAGGDMIAVRSLVDADRFRCFHLVGEKRTFFGCRHYTTGLTLMDILDTDGDKWLDELDSGLQGQKAEFQILDNVDSTGELIVRLPKEITISGSFQGFHHQKIKISENRISQQYLATLENRKLKRELPFSFRSINTRENLYLVTETLETVKEETLKSDRQYKFWSQISQGHLSYKHKGQREVTIPPNRVLSYRVKQLVFPNKETMSAGLDIHFRGKTKSFPEGKSLGSEDSRNMKEKLEDMESVLKDLTEEKRKDVLNSLAKCLGKEDIRQDLEQRVSEVLISGELHMEDPDKPLLSSLFNAAGVLVEARAKAILDFLDALLELSEEQQFVAEALEKGTLPLLKDQVKSVMEQNWDELASSPPDMDYDPEARILCALYVVVSILLELAEGPTSVSS

Variants of B1 are the subject of the assay. In words: ITC; parent: 94 nM.
On to chain 1 N124A, for which the Kd turned out to be 0.36 µM.
